The target in test [1] is Arg-Gly-Asp-directed receptors on LiBr melanoma cells (human (endogenous in LiBr)). The experiment in a line: radioligand binding.
Test [2] shares this target. In words: radioligand binding. This is another data set of the same source.

“And” between values parts separate entries of the source, which are not always exact repeats. Equal entries are not always repeated. Where two headings read alike, the source gives them in different places. No end group written: not given here. *: point of attachment. 125I = [125I]*

Regarding KY(125I)GRGDSP [iodinated synthetic peptide KYGRGDSP], the specific cpm in test [1] is 2660 cpm; in test [2], 637 cpm and 494 cpm.
